Assay results taken from US20100322950A1.

Molecular target: CD44 receptors on SMMC-7721-SC2 hepatocellular carcinoma cells (human) (UniProt P16070)
Assay: cell-based or functional assay

CD44 receptors on SMMC-7721-SC2 hepatocellular carcinoma cells (human), sequence (P16070 21-742): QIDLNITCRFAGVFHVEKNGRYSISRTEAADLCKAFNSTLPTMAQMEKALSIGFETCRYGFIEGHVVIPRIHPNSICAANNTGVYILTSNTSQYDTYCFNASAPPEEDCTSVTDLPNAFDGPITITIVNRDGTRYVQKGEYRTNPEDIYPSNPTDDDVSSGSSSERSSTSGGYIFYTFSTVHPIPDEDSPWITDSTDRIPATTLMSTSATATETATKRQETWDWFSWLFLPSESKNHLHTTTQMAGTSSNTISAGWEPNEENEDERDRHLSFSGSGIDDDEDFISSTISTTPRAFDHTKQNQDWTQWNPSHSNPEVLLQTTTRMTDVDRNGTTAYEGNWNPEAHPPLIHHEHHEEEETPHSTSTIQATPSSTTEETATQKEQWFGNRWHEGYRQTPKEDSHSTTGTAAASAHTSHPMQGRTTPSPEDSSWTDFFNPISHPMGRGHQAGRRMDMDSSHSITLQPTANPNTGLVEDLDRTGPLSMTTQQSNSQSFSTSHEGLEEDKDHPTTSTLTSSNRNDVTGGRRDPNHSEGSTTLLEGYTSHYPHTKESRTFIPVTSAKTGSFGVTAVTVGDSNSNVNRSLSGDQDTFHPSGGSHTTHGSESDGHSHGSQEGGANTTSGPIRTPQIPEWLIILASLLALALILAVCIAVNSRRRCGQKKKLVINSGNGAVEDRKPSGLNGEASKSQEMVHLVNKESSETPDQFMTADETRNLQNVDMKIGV

cellular invasion of SMMC-7721-SC2 cells through Matrigel, 36 hours: > 2 fold
Substance: OPN-5 kD expressed from the pDest-490 vector with C-terminal 1xFLAG tag (from UniProt P10451 167-210) (ligand)
